Target: Fn-TF:Factor VIIa complex (UniProt P08709)
Sequence (chain, as listed by the source, chain 1 of 2): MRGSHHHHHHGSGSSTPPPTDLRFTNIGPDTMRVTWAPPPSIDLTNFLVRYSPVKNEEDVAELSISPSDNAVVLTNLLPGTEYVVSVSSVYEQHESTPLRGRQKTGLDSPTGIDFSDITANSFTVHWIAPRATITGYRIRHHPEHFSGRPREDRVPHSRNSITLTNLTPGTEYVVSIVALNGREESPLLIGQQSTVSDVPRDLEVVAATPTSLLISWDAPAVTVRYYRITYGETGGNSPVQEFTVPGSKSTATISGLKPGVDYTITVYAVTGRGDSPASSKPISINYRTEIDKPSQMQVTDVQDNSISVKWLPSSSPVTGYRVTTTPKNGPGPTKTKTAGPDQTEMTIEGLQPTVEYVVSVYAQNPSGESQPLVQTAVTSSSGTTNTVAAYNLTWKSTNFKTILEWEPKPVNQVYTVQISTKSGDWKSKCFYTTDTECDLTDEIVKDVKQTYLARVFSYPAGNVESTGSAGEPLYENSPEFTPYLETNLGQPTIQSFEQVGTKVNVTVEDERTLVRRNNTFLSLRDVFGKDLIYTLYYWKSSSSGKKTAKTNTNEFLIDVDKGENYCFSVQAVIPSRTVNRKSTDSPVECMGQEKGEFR
Sequence (P08709 61-466, chain 2 of 2): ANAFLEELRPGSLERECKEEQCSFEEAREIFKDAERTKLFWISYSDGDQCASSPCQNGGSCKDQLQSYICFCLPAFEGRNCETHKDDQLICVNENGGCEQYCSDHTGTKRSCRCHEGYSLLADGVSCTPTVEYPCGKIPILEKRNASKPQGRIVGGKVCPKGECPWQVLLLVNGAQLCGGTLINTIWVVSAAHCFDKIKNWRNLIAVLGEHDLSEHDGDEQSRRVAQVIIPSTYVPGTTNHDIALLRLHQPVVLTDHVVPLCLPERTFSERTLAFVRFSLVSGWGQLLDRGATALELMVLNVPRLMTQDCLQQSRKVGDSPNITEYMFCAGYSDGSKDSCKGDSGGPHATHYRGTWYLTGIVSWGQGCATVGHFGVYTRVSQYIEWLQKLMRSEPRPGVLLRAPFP

Chain of Factor X (chain): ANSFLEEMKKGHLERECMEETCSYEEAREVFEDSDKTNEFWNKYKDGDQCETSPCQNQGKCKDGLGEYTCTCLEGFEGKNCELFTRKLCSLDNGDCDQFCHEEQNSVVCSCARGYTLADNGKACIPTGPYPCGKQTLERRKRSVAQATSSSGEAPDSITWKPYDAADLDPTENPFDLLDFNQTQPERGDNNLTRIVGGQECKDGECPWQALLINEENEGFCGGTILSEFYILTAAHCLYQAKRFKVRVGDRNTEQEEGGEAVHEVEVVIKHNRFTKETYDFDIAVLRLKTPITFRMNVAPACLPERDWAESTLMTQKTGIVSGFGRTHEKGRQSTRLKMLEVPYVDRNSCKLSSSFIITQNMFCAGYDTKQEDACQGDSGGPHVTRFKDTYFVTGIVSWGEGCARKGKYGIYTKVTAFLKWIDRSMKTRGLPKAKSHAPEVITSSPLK

Substance: Factor X
- proteolytic activity toward Factor X (Factor Xa generation, Spectrozyme FXa): The increasing concentration of Fn-TF led to increased proteolytic activity similar to the curve obtained with TF1-218

Reference: patent US20030194400
